Source: doi:10.1101/2021.08.10.455837

Biological target: human HBEGF (human) (UniProt Q99075)
UniProt Q99075, sequence (Q99075 20-208): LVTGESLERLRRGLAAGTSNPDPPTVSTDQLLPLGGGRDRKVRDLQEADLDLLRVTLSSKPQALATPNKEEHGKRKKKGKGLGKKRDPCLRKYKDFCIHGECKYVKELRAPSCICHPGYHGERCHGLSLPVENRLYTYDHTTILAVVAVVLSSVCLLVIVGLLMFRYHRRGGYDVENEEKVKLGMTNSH

Diphtheria toxin (from UniProt P00588 33-567) (natural protein)
EC50 of toxicity (dose titration) on WT ARN8 cells (basal levels of HBEGF): 0.026 nM
